Data published in paper PMC3983052.

Molecular target: AaSR-C-Full (full-length A. aegypti scavenger receptor-C with its trans-membrane region, 23-494 aa) (Aedes aegypti)
Test: flow cytometry on cells

“purified inactivated DENV-2 virions (complex)” was tested, and the percent of AaSR-C-expressing cells bound by DENV-2 virions was greater than 90%.
